Measured values taken from patent publication CN111647079A (UNIV BEIBU GULF, dated 2020).

Legend:
[1] = biological target: NCOV-SARI-N-his (真核表达N蛋白) (SARS-CoV-2, UniProt P0DTC9 1-419)
[2] = biological target: T1, 2019-NCOV Nucleocapsid (原核表达N蛋白) (SARS-CoV-2, UniProt P0DTC9 1-419)
[3] = biological target: T1, 2019-NCOV Nucleocapsid (原核表达N蛋白); assay: BLI (Fortebio BLItz), […], global fit

B1: Fab 20抗体 (抗新型冠状病毒N蛋白的中和抗体) (Fab, V domains shown)
VH: VQLLEQSGAEVKKPGSSVKVSCKASGGTFSSYAISWVRQAPGQGLEWMGGTIPIFGTANYAQKFQGRVTITADESTSTAYMELSSLRSEDTAVYYCARGGWSSSAGGYYGMDVWGQGTTVTVSS
VL: not shown
notes: also called HFab20/LFab20
EC50 [1]: 4.75 µg/mL | EC50 [2]: 3.98 µg/mL | Kd [3]: 111 nM
